Patent US20230137139A1, “BIOSYNTHESIS OF CANNABINOIDS AND C[…]” (priority 2020, published 2023)
Changes are numbered by the printed parent chain.

B1: t865735 (protein)
chain: MGNTTSIAGRDCLISALGGNSALAVFPNELLWTADVHEYNLNLPVTPAAITYPETAAQIAGVVKCASDYDYKVQARSGGHSFGNYGLGGADGAVVVDMKHFTQFSMDDETYEAVIGPGTTLNDVDIELYNNGKRAMAHGVCPTIKTGGHFTIGGLGPTARQWGLALDHVEEVEVVLANSSIVRASNTQNQDVFFAVKGAAANFGIVTEFKVRTEPAPGLAVQYSYTFNLGSTAEKAQFVKDWQSFISAKNLTRQFYNNMVIFDGDIILEGLFFGSKEQYDALGLEDHFAPKNPGNILVLTDWLGMVGHALEDTILKLVGNTPTWFYAKSLGFRQDTLIPSAGIDEFFEYIANHTAGTPAWFVTLSLEGGAINDVAEDATAYAHRDVLFWVQLFMVNPVGPISDTTYEFTDGLYDVLARAVPESVGHAYLGCPDPRMEDAQQKYWRPNLPRLQELKEELDPKNTFHHPQGVMPA
B2: t865772 (protein)
chain: B1 chain with D35A, P446T
modifications: expressed in S. cerevisiae strain
B3: t865796 (protein)
chain: B1 chain with P446T, L458W
modifications: expressed in S. cerevisiae strain
B4: t878468 (protein)
chain: B1 chain with A57E, P446T
modifications: expressed in S. cerevisiae strain
B5: t878466 (protein)
chain: B1 chain with Q161K, P446T
modifications: expressed in S. cerevisiae strain
B6: t865733 (protein)
chain: B1 chain with V398T, P446T
B7: t865721 (protein)
chain: B1 chain with Y256F, P446T
B8: t865795 (protein)
chain: B1 chain with F262I, P446T
modifications: expressed in S. cerevisiae strain
B9: t865809 (protein)
chain: B1 chain with N122G, P446T
modifications: expressed in S. cerevisiae strain
B10: t865731 (protein)
chain: B1 chain with V25A, P446T
B11: t865758 (protein)
chain: B1 chain with P446T, E456A
modifications: expressed in S. cerevisiae strain
B12: t865740 (protein)
chain: B1 chain with N122E, P446T
B13: t865814 (protein)
chain: B1 chain with D280N, P446T
modifications: expressed in S. cerevisiae strain
B14: t865727 (protein)
chain: B1 chain with H353A, P446T

Tested on: CBCA, THCA, and CBDA production
Test: In vivo TS activity assay, Example 2 protein engineering of A. niger CBCAS, cultures fed olivetolic acid
Assay type: cell-based, S. cerevisiae
Settings: secondary screen, olivetolic acid (Table 8)
How it was run: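 S. cerevisiae expressing A. niger CBCAS mutants (MFalpha2/HDEL-tagged) grown 2 days at 30 °C in YEP+4% dextrose, then 4 days at 20 °C in YEP+4% galactose with 1 mM olivetolic acid, spiked every 24 h with 2% galactose and 1 mM olivetolic acid. 100 mM citrate pH 5.5 added, methanol-extracted; CBCA, THCA, CBDA quantified by LC-MS.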

Molecule | Mean CBCA | Mean CBDA | Mean THCA
B1 | 27519.94 µg/L | 7436.20 µg/L | 1783.72 µg/L
B2 | 9992.22 µg/L | 3051.02 µg/L | 622.72 µg/L
B3 | 19975.57 µg/L | 6427.56 µg/L | 1436.09 µg/L
B4 | 26823.18 µg/L | 8556.40 µg/L | 1922.88 µg/L
B5 | 23882.09 µg/L | 8030.74 µg/L | 1649.00 µg/L
B6 | 18070.99 µg/L | 6320.33 µg/L | 1307.71 µg/L
B7 | 21099.41 µg/L | 5260.35 µg/L | 1396.80 µg/L
B8 | 24874.10 µg/L | 7028.82 µg/L | 1807.99 µg/L
B9 | 20413.40 µg/L | 6738.75 µg/L | 1390.36 µg/L
B10 | 16059.53 µg/L | 4006.74 µg/L | 971.80 µg/L
B11 | 26316.76 µg/L | 6998.62 µg/L | 1712.53 µg/L
B12 | 11837.41 µg/L | 3671.56 µg/L | 685.53 µg/L
B13 | 20192.93 µg/L | 6751.44 µg/L | 1367.48 µg/L
B14 | 16276.39 µg/L | 4297.38 µg/L | 1177.87 µg/L

Same assay, conditions: share of terminal cannabinoid product profile

Molecule | % CBCA | % CBDA | % THCA
B1 | 74.90% | 20.24% | 4.85%
B2 | 73.12% | 22.33% | 4.56%
B3 | 71.75% | 23.09% | 5.16%
B4 | 71.91% | 22.94% | 5.15%
B5 | 71.16% | 23.93% | 4.91%
B6 | 70.32% | 24.59% | 5.09%
B7 | 76.02% | 18.95% | 5.03%
B8 | 73.79% | 20.85% | 5.36%
B9 | 71.52% | 23.61% | 4.87%
B10 | 76.34% | 19.05% | 4.62%
B11 | 75.13% | 19.98% | 4.89%
B12 | 73.10% | 22.67% | 4.23%
B13 | 71.32% | 23.85% | 4.83%
B14 | 74.83% | 19.76% | 5.42%

Tested on: CBCVA, THCVA, and CBDVA production
Test: In vivo TS activity assay, Example 2 protein engineering of A. niger CBCAS, cultures fed divaric acid
Assay type: cell-based, S. cerevisiae
Settings: S. cerevisiae strains expressing A. niger CBCAS mutants, secondary screen, fed divaric acid
How it was run: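 S. cerevisiae expressing A. niger CBCAS point mutants (N-terminal MFalpha2, C-terminal HDEL signal peptides) grown 2 days at 30 °C in YEP+4% dextrose, then 4 days at 20 °C in YEP+4% galactose with 1 mM divaric acid plus daily 2% galactose and 1 mM divaric acid spikes, then 2 days with 100 mM sodium citrate pH 5.5. Methanol extracts analysed by LC-MS; quadruplicate.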

Molecule | Mean CBCVA | Mean CBDVA | Mean THCVA
B1 | 2900.35 µg/L | 0.00 µg/L | 1459.81 µg/L
B2 | 1441.55 µg/L | 0.00 µg/L | 702.24 µg/L
B3 | 2570.89 µg/L | 0.00 µg/L | 1344.71 µg/L
B4 | 2954.90 µg/L | 0.00 µg/L | 1628.92 µg/L
B5 | 2985.03 µg/L | 0.00 µg/L | 1623.40 µg/L
B6 | 2023.09 µg/L | 0.00 µg/L | 1202.96 µg/L
B7 | 3281.34 µg/L | 0.00 µg/L | 1482.54 µg/L
B8 | 1897.16 µg/L | 0.00 µg/L | 1181.24 µg/L
B9 | 3093.25 µg/L | 0.00 µg/L | 1662.32 µg/L
B10 | 1605.94 µg/L | 0.00 µg/L | 885.33 µg/L
B11 | 3465.87 µg/L | 0.00 µg/L | 1548.62 µg/L
B12 | 1153.83 µg/L | 0.00 µg/L | 469.98 µg/L
B13 | 3290.24 µg/L | 0.00 µg/L | 1468.01 µg/L
B14 | 1829.32 µg/L | 0.00 µg/L | 981.31 µg/L

Same assay, conditions: share of terminal cannabinoid product profile, fed divaric acid

Molecule | % CBCVA | % CBDVA | % THCVA
B1 | 66.52% | 0.00% | 33.48%
B2 | 67.24% | 0.00% | 32.76%
B3 | 65.66% | 0.00% | 34.34%
B4 | 64.46% | 0.00% | 35.54%
B5 | 64.77% | 0.00% | 35.23%
B6 | 62.71% | 0.00% | 37.29%
B7 | 68.88% | 0.00% | 31.12%
B8 | 61.63% | 0.00% | 38.37%
B9 | 65.04% | 0.00% | 34.96%
B10 | 64.46% | 0.00% | 35.54%
B11 | 69.12% | 0.00% | 30.88%
B12 | 71.06% | 0.00% | 28.94%
B13 | 69.15% | 0.00% | 30.85%
B14 | 65.09% | 0.00% | 34.91%
